# Source: US20230303660A1
# B1: s4-1BBL-TriXV (ligand)
# chain: GSGSNWSHPQFEKGGSGGHHHHHHGGSGGGSRNLVTAFSNMDDMLQKAHLVIEGTFIYLRDSTEFFIRVRDGWKKLQLGELIPIPADSGSLDLRQGMFAQLVAQNVLLIDGPLSWYSDPGLAGVSLTGGLSYKEDTKELVVAKAGVYYVFFQLELRRVVAGEGSGSVSLALHLQPLRSAAGAAALALTVDLPPASSEARNSAFGFQGRLLHLSAGQRLGVHLHTEARARHAWQLTQGATVLGLFRVTPEIPAGLPSPRSE
# B2: Triple-s4-1BBL-TriXVIII^LL (ligand)
# chain: GSGSNWSHPQFEKGGSGGHHHHHHGGSGGGSSGAGGSGGSSGSDGASGSGVRLWATRQAMLGQVHEVPEGWLIFVAEQEELYVRVQNGFRKVQLEARTPLPRGTDNEGSLDLRQGMFAQLVAQNVLLIDGPLSWYSDPGLAGVSLTGGLSYKEDTKELVVAKAGVYYVFFQLELRRVVAGEGSGSVSLALHLQPLRSAAGAAALALTVDLPPASSEARNSAFGFQGRLLHLSAGQRLGVHLHTEARARHAWQLTQGATVLGLFRVTPEIPAGLPSPRSEGGGGSGGGGSGGGGSLDLRQGMFAQLVAQNVLLIDGPLSWYSDPGLAGVSLTGGLSYKEDTKELVVAKAGVYYVFFQLELRRVVAGEGSGSVSLALHLQPLRSAAGAAALALTVDLPPASSEARNSAFGFQGRLLHLSAGQRLGVHLHTEARARHAWQLTQGATVLGLFRVTPEIPAGLPSPRSEGGGGSGGGGSGGGGSLDLRQGMFAQLVAQNVLLIDGPLSWYSDPGLAGVSLTGGLSYKEDTKELVVAKAGVYYVFFQLELRRVVAGEGSGSVSLALHLQPLRSAAGAAALALTVDLPPASSEARNSAFGFQGRLLHLSAGQRLGVHLHTEARARHAWQLTQGATVLGLFRVTPEIPAGLPSPRSE
# Target: human 4-1BB (human) (UniProt Q07011)
# Sequence (Q07011 24-255): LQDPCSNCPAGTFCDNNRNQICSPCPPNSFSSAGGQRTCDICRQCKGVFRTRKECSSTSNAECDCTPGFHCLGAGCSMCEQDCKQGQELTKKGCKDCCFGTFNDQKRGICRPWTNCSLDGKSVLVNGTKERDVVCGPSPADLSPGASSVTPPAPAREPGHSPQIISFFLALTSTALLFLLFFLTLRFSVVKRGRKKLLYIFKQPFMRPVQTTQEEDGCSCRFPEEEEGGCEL
# Assay: flow cytometry; dilution series of HEK293T supernatant on Jurkat TPR cells expressing human 4-1BB
row,Binder,supernatant dilution at which binding is no longer detectable (supernatant dilution (1:x))
1,B1,512
2,B2,256
